Results as given in a protein production outcome set (Wang et al. 2014).

Test: label from the status in PepcDB records
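Further: failed if final PepcDB status was selected cloned or expressed and not failed if soluble or beyond.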

In the case of “MKQVVLNLKDGDLTVEEVPIPTIKGSGVLVRNHYSVISAGTESGVVDLADKSLIGKARARPDLAMKVINKAKQDGPISAFQQAMGRLEKREPLGYSSAGTVISVSEDIKDIKPGDRVACAGAGYANHADVVFVPRNLCAKVPENVDFKNACFTTVGSIAMQGVRNADVKIGENIVVIGLGLIGLITLQILKASGCRVFGVDLDESKVNLARELGADLSYSRNSPNLEERIKQFSRGIGADSTIITAATRSNDPVDFAGKITRERGKVVIVGLVGMDIPREEYYNKELEMRISRSYGPGRYDRNYEEYGQDYPAPYVRWTENRNMQAFLDLISMKKISMEPIITHEYEIEQAPEAYNIIKERKPYLGLVLKYDTDKRIEDKVILKSPGPVSAISESFSPVLGVIGAGIFATSILLPNLSKIKGVKLKGLSAASGLSCESVAKKYGFEYCTSDYHKILSDPEINCVSIVTRNSLHASLVIEALKNKKNVLVEKPLALNEEELNAIIEAKKENGGFIMVGFNRRYSELGVKLKDFFKNRSQSMVAYYRVNAESIPKDHWVYDESEGGSRIITECCHFIDFMQFIIGSSPVEVYARKIESQVKTPEDNENVSITIAFEDGSIGTLIYTTHGDSSVSKEHAEFFADGMVGAITDFKQLKLVKDGKCTQINKRLITEKGHKNELENFFKMVKQGPSKYSFEENVLTTVSTLKAAEHVMSGGPVKLI”, the protein production is reported as “failed”.

With “MDISVIDATKVNTETGLHIGESNAPVKMIEFINVRCPYCRKWFEESEELLAQSVKSGKVERIIKLFDKEKESLQRGNVMHHYIDYSAPEQALSALHKMFATQDEWGNLTLEEVATYAEKNLGLKEQKDATLVSAVIAEANAAHIQFVPTIIIGEYIFDESVTEEELRGYIEK” the protein production was “not failed”.

With “MECDRNVEKMSQVILLFFIYSFIGWLWETVYCSLKAKKFVYRGFLVGPYCPIYGFGVLSVLYFVEPFENNLLVLYVGSAVLVTILEYVTSYGLEKLFHASWWDYHDVPFNLNGRVALPVSLFWGLGCVLIVKVIQPEIAKVVSFLQATFGNYLALCIVIVMGLDLIYTLLNMQGFKKLITEMGQTLETNQQEFKQRLNTKMEIATADWQKLKERTKKEHFQNRLNFQQRRFINNYPKLTLKNIKNSKEVRHLLEDLKKKGQ” the protein production was “failed”.

With “MWKDLTEPLPEACAEGLEIRVVKSPEELADYAAVLSANWNPPAETVQRFYTEAAEYALRKNSPALYLVGYAGNRAVCSAEAFIHASVVGIYNISTLEHKRRRGYGGAITLATLHTARNAGCDTAVLQASEDGEPVYRKLGFTDCGRFTEYSL” the protein production was “failed”.

With “MSYLEYTVKSTPSGLRKILYMNWPLTLLLISVASAGFLMLYSVAGGSFSPWAEPQIKRFMAGLVVMTAVAMVPIWFWRNMAAVAYGGSLVLLVMVELFGAVGMGAQRWIDLGFMRLQPSELTKITLVMVLAAYYDWLPGKKTSRPLWVLVPVLIILVPTALVLKQPDLGTAILLLSAGGALMFLAGVHWAYFAAVIAAGVGLITAVFKSRGTDWQLLKDYQFRRIDTFLDPSSDPLGAGYHITQSKIALGSGGWSGRGFMQGTQSRLNFLPEKHTDFIFTTLAEEFGFIGGISLLSLYALIIAFCVATALATRDRFSSLVTLGIAVNFFLFFAVNMSMVMGLAPVVGVPLPMVSYGGSAMLVLLVAFGLVHSAHIHRPR” the protein production was “failed”.

In the case of “MTAILLHNVAKSYRSYDHPWETLWEVFTKTRRHREWTALHPLSLEIAHGEVVGIVGTNGAGKSTLLKLIAGTLTPSAGDIRVNGHVAALLELGAGFHPDMTGRENVYLGASVMGLSSERVDRLYDGIVEFAGLGEFMDQPVKTYSSGMYMRLAFAVATAADPDVLILDEALSVGDGAFARKSFERIIGYKDAGKTILFCSHSLYQVEAICSRVLWLDHGRLVMDGEPARVVSAYAEFLGGGGEGCGTPDQPAPAAVAGSGVGRLTKVEVEADGVEGRKLTVRSGQTDLTVAVGFASDPALPPPSVGLTITGSNGWAVTSASTSNDGLTISRRPDGSGEVELSFPRFPLLKGAYWVNVFLLCEQGIHLYDRIEHAAELEVVQDGLEQGVVSLPRRWSVNGAPASAVSPTVPTVAAWLEHHHHHH”, the protein production is reported as “failed”.

With “MAQNPERRAALVNAAIEVLAREGARGLTFRAVDVEANVPKGTASNYFPSRDDLFDQVGKRIHERLGPDPSVVEESGRKPQNLELAIEYMQGLFGRITRDRTGYLALQELRLEAVRRPELRTTLTRTISENLKRDIGFHLDSGLPGDRSTVLMLYLAMNALIVEHLTLPGVLEGVDTERLVADLVTRAVATPDA” the protein production was “not failed”.

In the case of “MNLTYLFVLIWLAFLISSGVMLFSRGFLLARVSKTETSTCRRLSTNPNAEYVLTDEVVNEIFKDVNASSNLCLPQKSKVIVLVVDALKYEFGLYRANATDPLPYENKLVVLQELLQQNPDHARLMRFRADPPTTTLQRLKGLTTGSLPTFIDIGSNFASPEINEDNIIDQIVKNDLPVVFLGDSTWTDLYPHRFKRSYSYPSFDIFDLDSVDNEILKHLPKELESKDWQVLVAHFLGVDHCGHKHGPMHEEMARKLGEMNEVIRSVVAAMDNDTTLLVMGDHGMTASGDHGGDTDDETNALLFAYSKQHRFYGNDSGSDSEMLQQIDLVPTLATILGVPIPYSNLGLVNFNIVPDLRVPHLNKFQTLLLHSWQNAQQIYRYFFQYALENKRTFNVEQMDHLETEFILLTHRVQTVYNEVAFKSFVRDLNTNLRDILGTCREIWVRFDPTQMSQGLLFTFLPLFFIFLVVNNSRPADFPHIFKAKEVFYVYLINLAAGVFGYRYFKTFSFKTEEQGVIFFTAISSAVILAFHTLRHWTSIATNWSAVKRFGHMPTRLLLFGSMAVFFSNSFVIQEAKILSYLLAAAILLLSHELLRLSARLDFRTKFKASQFLRSTALRLILASVLAICLIRFAYTLFRCREEQGNCSDFVNTGGAGFSLKKPGTGKTYILAVVVLVVYTTLTRLYLRSCGNLTGNLPNVLLARYGPTVASICAGGHILLANSSIKHIQRTHIDAMALVIYGLLLVQIIVLSWAPLMTFVLPPRSSHTVTINGNESIVPEIFRKMKRMYEGDDDERRSHIPVVYGLATVYSSIVIAFGVFLALVMIVLLEPRASIGLVVCVAVGAILLSVHSILRYRTATSFESCVQPTFTALVGWFLLAHFCFFATSHQTTLSQIEWRAAFVGRTTGIGQSNLVSGALVILNTFCGPIFFFCMYSLLSTETFSLFALFPNLIRSCRSGGKVDASTSMSDLANEAVGFDMTRGELSLYEYEDVFLGTGFKLATQFFMLQGLKIFCAMLACTIHCRHLMVWKIFAPRFIYEALATFVSLPALIVGYLLVLRIHRGVDTLIKRINKAKVH”, the protein production is reported as “failed”.

In the case of “MRAFLRVVETGNFTRASASLNMPKATVTNLIQGLEAHLRTKLLNRTTRRVLVTPDGALYYERAARLLSDLDELDGSLSTAQSLPKGRLRVETASAFANLVIIPALPEFHKKYPDIQIDLGVSDRTIDYLAENVDCAIRAGTLTDQSLIARRITEMKFVACASRDFLERHPVPQHPSDLEKNCYVVGYFLPKTGQQMPFHFRRGNEEIEVSGRYTVAANESTTYLAAARAGLGVIQAPLFMVREDLRNGTMVPVLPDWQVEPMPIYLVYPPNRHLSSRLRVFADWVVKVMAQSQNGE”, the protein production is reported as “not failed”.

With “MTDKIFQEKVGPVALTIVPTQKYKSNKIVFKFRAPLERETVTKRSLLSILLETNSEKYPTQTAFRKQLANLYGANFYTTTAKKGNEHVLTVVFDMIDGQYVSDGENILKDAFAFIEQAIFQPNATNGAFDEEIVVREKENLKSSLEGIYDDKIRFASKRLVEEMFRDDEFRFGAAGVLEDVDAITAKDLYEYYLKFIKEDVIEIFICGDVTKEEVMPLIEKMAFSPRPERKGVFYTKEAPKETRVIHEQQAINQGKLVLGYQTETLFGDDDFVALQLANGLLGGFANSKIFINVREKASLAYYASSRIDSFKGYMIISAGIDEVNYKQALTIIEEQIVAMKQGDFTEDELNQTKEMLINQLLETNDQAQGLIELAYNNVLREANLDLENWIIKIKQATKQEVVAAINKIKPDTIYFLSKGGEELHGKNHI” the protein production was “failed”.

For “MKRKMENMKYTMSYIAKNFRVALMLSLMMLLCSCSSEDKLELHKGATLPIMQGIADNVPYIQSVEKELTYDLYDGVRITDVIFTYCAKPTRMIIAEVDLNKNVTIVTSTPDNKPEVGKILQQVTVQAEKAEAAGRKVILGTNGDFYSKKNDLWIPGGLFYKDGVAIKTEIGWEADHVFYMLKDGTAHITSVPEFKLVEREVVHAIGGWQRMVQDGEVVKNFTVNDNAMQFHPRTFVGVSADNRKVYLFVVDGRQPEYSNGMRLEDMMLLCQGAGCYQAFNMDGGGSTTMVRRVEKGSSVSFEVMNQPSDNPARSVINGLQVIEKTN”, the protein production was “failed”.

With “MTATGLERSTANAQSLRNDSHQRSFHRFDGLTASSDITLEAVSSVDAIAAADWDACARSGTIVPHPDGAGGACTTATAAYNPFLSHAFFTALEQSGSASPRTGWGPRHLIAKHEGAIVGIVPCYLKSHSQGEYVFDRGWADAYERAGGNYYPKLQVSVPFTPATGPRLLIRDRIDSARVAGALANGLMALCDLSKASSVHVTFARESEWRFLAECGFLQRTDQQFHWHNAGYSSFDDFLATMNSRHRKGIKRERRDAVASGITIHHLTGADITEDAWDAFFEFYIETGSRKWGRPYLTREFYSLIGQSMSEDVLLVMAKRNGRWIAGAINFIGGDTLFGRHWGAIEHHPFLHFEVCYYQAIDFAITRGLKVVEAGAQGEHKIARGYLPQTTYSAHFIADPALRRAIADYLKRERMYVDEMGRELTEAGPFKKGNIADPA” the protein production was “failed”.

With “IKAVFDPDNRLNPGKICPPEGIDAPMMKVDAAKRGTWDRQIPIAVRSSWRGAMECNGNGLCFNFDVKSPMCPSMKVSNQRIHSPKGRATLVREWLRLLADRGVDPNQLEKALPEQGVSLRSLVARTRNSWHARKGEYDFSHEVKEAMSGCLACKACSTQCPIKIDVPEFRSRFLQLYHSRYLRPVRD” the protein production was “failed”.

With “MKKNKLTTLALILPITILTPIVIASCTNKTKVKKSSSLDKIASNLKLEYFNNKANTKASSVQKDEIKKPLNLPNDVVFSVKDVFVSHKDQSVLIVKYTLKKGNEIQEYTYEIKGFKSVYEKDKIVNDLSQANEDFKKIVNNIRLKDTFDFKLAAFPNQNYDQLLPSQIYKNYYQGIEIQQHKYQNELDIKIINFLYPDGDFGSANKNGTLKLSLMLTDKKNNQVYYKLLEVSGFKSNPYGVDENGTIPGIGTERLKPKNQDDYFSKTQLQRYEIDNEGYLQILKRQNNDKNWKELRPDLNATVSDIKHFDEKAKNVGQDSYESAAYKGFTLPVYESDGKISGLALAGKDTPKGPSWVDAIGRNQWQIGGLPRTLPNEKYRQEAMQTFSLGILNNDSHKNNTYNKTAGTTWILDYQKTSDNKYPTKWYFATNLHVADAINENTLSINLMRLMDSAQIKTTFRLSNLDENIYNFGFRSKEHGKNLLNHGLKKIFDGRDFLKTKPAEYLINSQKEKYKDVGNFTDFAVFELDFEKLELVNVWKNFLGENNGLVTKYNNYNPQELAKVITSNYANNKNNQIKFLSKSYLSDYSKIDVPLKYRQEDAKTWFKKYDELFALGWPNSTEDFFFKAYVDDDQLKYRTRDNFSLWTNSDYRFFNNLTQQEGGQPAFPPERTERGNYLSYAIGFRSFIQKPGIVDAFIAVPQIGNNLYTSSDNKKYINMGLEYLPKHFAPAGGASGTSVRNQKNELVAIYHAKYDSSKTGLAAAFRSEGYDYQGLYGNYNLPQYDLIYGGGKDQTEKKSYREAMKDIYQNNNIKTALFPDGFDKIPDEFKFNNN” the protein production was “failed”.

With “EGWMDEPDWRRFITAYHQEHAGITEQLFSLADTSPYAWLAEPLRAVEGTVLDLACGSAPTRQELPDADWVGVDLSAAELAEAARQGRGPLLRAAADALPAASASVGAVCAAMCLPVVTPLPQTLGEIRRVLRPGGVLAALVPSQSGLSPSGMLGWVRVMAALRAVRQPWPNPQARDGLPALLRTAGFRVRRDERHVFTLAIDSAGAAALLADALYLPGLTTHRAQAAKR” the protein production was “failed”.
